Results published in patent publication US20250019435A1 (ALBERT EINSTEIN COLLEGE OF MEDICINE, published 2025).

T1: PVR expressed on transduced cells (PVR-YFP) (UniProt P15151 21-417)
T1 construct: whole, on cells; On NIH 3T3 or Raji cells; also called PVR/3T3; PVR-YFP/3T3; not shown: YFP ('PVR-YFP ... fusion protein')
T1 sequence (looked up): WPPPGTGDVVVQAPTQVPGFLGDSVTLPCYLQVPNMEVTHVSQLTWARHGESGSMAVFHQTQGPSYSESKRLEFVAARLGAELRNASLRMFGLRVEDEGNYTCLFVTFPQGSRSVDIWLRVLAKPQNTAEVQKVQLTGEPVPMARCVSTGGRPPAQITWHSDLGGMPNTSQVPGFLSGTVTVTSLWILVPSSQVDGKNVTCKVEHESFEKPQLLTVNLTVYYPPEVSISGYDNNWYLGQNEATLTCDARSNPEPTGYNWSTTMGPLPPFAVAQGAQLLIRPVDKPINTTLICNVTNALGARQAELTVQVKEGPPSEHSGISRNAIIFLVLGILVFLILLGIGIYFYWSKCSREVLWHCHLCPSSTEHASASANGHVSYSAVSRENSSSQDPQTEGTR

T2: SHP-2 (human, UniProt Q06124 2-593)
T2 sequence (looked up): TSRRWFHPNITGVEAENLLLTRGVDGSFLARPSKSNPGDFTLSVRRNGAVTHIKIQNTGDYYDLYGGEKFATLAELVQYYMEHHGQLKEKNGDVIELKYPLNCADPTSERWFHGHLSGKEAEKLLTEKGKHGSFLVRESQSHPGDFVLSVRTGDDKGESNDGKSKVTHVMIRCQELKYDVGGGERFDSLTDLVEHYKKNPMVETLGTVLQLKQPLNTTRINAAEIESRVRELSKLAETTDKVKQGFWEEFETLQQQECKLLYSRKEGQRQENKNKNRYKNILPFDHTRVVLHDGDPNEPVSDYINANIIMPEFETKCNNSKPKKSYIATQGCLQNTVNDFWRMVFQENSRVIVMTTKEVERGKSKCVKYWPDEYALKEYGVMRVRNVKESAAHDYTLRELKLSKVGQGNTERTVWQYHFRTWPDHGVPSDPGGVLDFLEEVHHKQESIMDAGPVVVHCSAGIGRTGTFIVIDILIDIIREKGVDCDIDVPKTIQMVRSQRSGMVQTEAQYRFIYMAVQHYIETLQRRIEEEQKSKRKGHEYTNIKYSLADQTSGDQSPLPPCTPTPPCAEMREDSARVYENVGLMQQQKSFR


Tests used:
[1] = target: T1, PVR expressed on transduced cells …; test: confocal imaging of conjugates of transduced primary NK cells with PVR-YFP/Raji cells
Experimental: (§1) The KIR2DL5⁻ primary NK cells were transduced with WT KIR2DL5 or the indicated mutants, and then examined for protein expression with F8B30 (open) or mIgG1 (shaded). NC, negative control. Data are representative of 2 independent experiments. (B and C) Transduced primary NK cells were treated with (+) or without (−) pervanadate (VO₄) for 5 minutes. Cell lysates were immunoprecipitated with anti-KIR2DL5 antibodies. Phospho-tyrosine (4G10), SHP-1, SHP-2, and total KIR2DL5 were detected by immunoblots (B). Quantification of p-Tyr, SHP-1, and SHP-2 association with WT or mutant KIR2DL5 in VO₄-treated NK cells (C). WCL, whole-cell lysates. (D) Representative imaging of cell conjugates acquired upon the indicated transduced primary NK and PVR/Raji cell contact followed by staining with anti-KIR2DL5 mAb and DAPI. Scale bars: […]. (E) Lysis of scramble control or PVR^KO A427 (top) and Jurkat (bottom) by WT or mutant KIR2DL5-transduced primary NK cells at the indicated E/T ratios. Data are mean for duplicate measurements and representative of 3 independent experiments with 3 different donors. In A, and B, data are representative of 3 independent experiments. *P<0.05, **P<0.01, ***P<0.001, ****P<0.0001, by 1-way ANOVA (C), or paired Student's t test (D).
NK-Raji conjugation assay. […] Cell mixtures were then loaded onto poly-L-lysine-precoated slides and fixed with 4% formaldehyde at RT for 15 minutes. After blocking with 5% normal goat serum at RT for 1 hour, cells were stained with 20 µg/mL anti-KIR2DL5 antibodies (a mixture of 8 homemade clones) at 4° C. overnight and then with goat anti-mIgG (H+L) Alexa Flour 647 (Invitrogen) at RT for 2 hours. The cells were permeabilized by 0.1% Triton X-100 at RT for 15 minutes and stained with Alexa Flour Plus 405 Phalloidin (Life Technologies) for 1 hour at RT. The slides were then mounted by Gold Antifade Mountant without DAPI (Life Technologies). The mean pixel intensity of synapse and non-synapse was respectively measured and statistically analyzed. Images were acquired by Leica SP8 confocal microscope and processed by ImageJ (NIH).

[2] = target: T2, SHP-2; test: co-immunoprecipitation with anti-KIR2DL5 from transduced primary NK cells with or without pervanadate, immunoblot
Experimental: as §1, with “FIG. 12A-12E: KIR2DL5 ITIM and ITSM mediated NK cell inhibition and suppressed downstream signaling. (A) Tyrosine (Y) in ITIM and ITSM of KIR2DL5 was mutated to phenylalanine (F). The” for “The”
Coimmunoprecipitation and immunoblotting. NK92 cells or primary NK cells pretreated with or without 1 mM pervanadate (New England BioLabs) were lysed in Pierce immunoprecipitation lysis buffer supplemented with protease and phosphatase inhibitor cocktail (Thermo Fisher Scientific). Proteins from whole-cell lysis were further incubated with anti-KIR2DL5 antibodies and Dynabeads protein G (Thermo Fisher Scientific) for further immunoprecipitation. […]

[3] = target: T3, D2-deleted KIR2DL5 expressed on 3T3 cells (human, UniProt Q8N109 22-375); test: flow cytometry, transduced 3T3 cells
T3 construct: also called KIR2DL5 dD2
Source text: (§2) FIG. 15A-15E: Characterization of anti-KIR2DL5 specific monoclonal antibodies. (Related to FIGS. 8A-8D). (A) The protein sequence of KIR2DL5. The extracellular domain of KIR2DL5 was composed of tandem DO-D2 domains. The cytoplasmic tail of KIR2DL5 contained an immunoreceptor tyrosine-based inhibition motif (ITIM) and immunoreceptor tyrosine-based switch motif (ITSM). Domains were predicted and annotated based on UniProtKB (Q8N109). (B) The specificity of anti-KIR2DL5 mAbs. 3T3 cells transduced with indicated KIR family members were stained with 5 μg/ml of indicated anti-KIR2DL5 mAbs (open) or mIgG1 (shaded). (C, D) The affinity of anti-KIR2DL5 mAbs. C: Kinetic binding curves for F8B30 and B19C11. D: Data were acquired from kinetic binding curves detected by the Octet Red96 BLI instrument for indicated clones. (E) 3T3 cells transduced with DO-deleted (KIR2DL5 dD0) or D2-deleted KIR2DL5 (KIR2DL5 dD2) were stained with 5 μg/ml of indicated anti-KIR2DL5 mAbs. In B-E, data are representative of three independent experiments.

[4] = target: T4, D0-deleted KIR2DL5 expressed on 3T3 cells (human, UniProt Q8N109 119-375); test: flow cytometry, transduced 3T3 cells
T4 construct: the signal peptide 1-21 is left out; also called KIR2DL5 dD0; DO-deleted KIR2DL5
Source text: as §2

[5] = target: T5, KIR2DL5-Ig fusion protein (KIR2DL5 extracellular domain fused to human IgG1 Fc) (human, UniProt Q8N109 22-240); test: BLI, Octet RED96; KIR2DL5-Ig captured on anti-human Fc biosensors, mAb in solution; global 1:1 fit
T5 construct: A D0-only fusion (H22-A128) also exists; also called KIR2DL5-human Ig fusion protein; KIR2DL5 DO-D2-Ig; not shown: human IgG1 Fc tag
Experimental: Biolayer interferometry. The affinities of anti-KIR2DL5 mAbs were analyzed by biolayer interferometry using an Octet RED96 system (ForteBio, Pall LLC). Briefly, anti-human Fc capture biosensors (ForteBio, Pall LLC) were preloaded with KIR2DL5-Ig and then dipped into a solution containing mAb at 2-fold serial dilutions (from 200 to 1.5 μg/mL). Data were analyzed using Forte Pall (Port Washington, New York, USA) software 9.0. The global data fitting to a 1:1 binding model was used to estimate values for the Kₒₙ (association rate constant), Koff (dissociation rate constant), and KD (equilibrium dissociation constant).

Row | binding result [1] | binding result [2] | binding result [3] | binding result [4] | Kd [5] [nM] | koff [5] [s⁻¹] | kon [5] [M⁻¹ s⁻¹] | Binder
1 | binds | no binding |  |  |  |  |  | Y298F (receptor, also called KIR2DL5 Y298F (ITIM mutant) on transduced primary NK cells) receptor chain: HEGGQDKPLLSAWPSAVVPRGGHVTLLCRSRLGFTIFSLYKEDGVPVPELYNKIFWKSILMGPVTPAHAGTYRCRGSHPRSPIEWSAPSNPLVIVVTGLFGKPSLSAQPGPTVRTGENVTLSCSSRSSFDMYHLSREGRAHEPRLPAVPSVNGTFQADFPLGPATHGGTYTCFGSLHDSPYEWSDPSDPLLVSVTGNSSSSSSSPTEPSSKTGIRRHLHILIGTSVAIILFIILFFFLLHCCCSNKKNAAVMDQEPAGDRTVNREDSDDQDPQEVTFAQLDHCVFTQTKITSPSQRPKTPPTDTTMYMELPNAKPRSLSPAHKHHSQALRGSSRETTALSQNRVASSHVPAAGI
2 |  |  | no binding (tested: 5 µg/ml) | no binding (tested: 5 µg/ml) | 0.0413 | 6.96e-05 | 1.69e+06 | anti-KIR2DL5 mAb clone B7B23 (antibody, V domains shown, also called B7B23 (IgG1, κ)) VH: QVQLQQSGAELVRPGVSVKISCKGSGYTFTDYTMHWVKQSHAKSLEWIGVISPYYGDASYNQKFKGKATMTVDKSSSTAYMELARLTSEDSAIYYCARGLLRGFAYWGQGTLVTVS VL: DIVMTQSPSSKDMSVGQKVTMRCKSSKSLLNSSNQKKYLAWYQQKPGQSPKLLVYFASIRESGVPDRFIGSGSGTDFTLTISSVQVEDLADYFCQQHYSTPWTFGGG
